These results are taken from US20130131320A1 (TOHOKU UNIVERSITY, published 2013).

B1: h528Fv WT (other)
VH: QVQLVQSGAEVKKPGASVKVSCKASGYTFTSYWMHWVRQAPGQGLEWMGNIYPGSGGTNYAEKFKNRVTMTRDTSISTAYMELSRLRSDDTAVYYCARSGGPYFFDYWGQGTLVTVSS
VL: DIVMTQSPLSLPVTPGEPASISCRSSQNIVHNNGITYLEWYLQKPGQSPQLLIYKVSDRFSGVPDRFSGSGSGTDFTLKISRVEAEDVGVYYCFQGSHIPPTFGQGTKVEIKR
notes: Fv fragment: VH and VL co-expressed in E. coli BL21; Purified by metal chelate chromatography; the tag is not described; also called wild type humanized Fv
B2: h528Fv 5.11.T (other)
VH: QVQLVQSGAEVKKPGASVKVSCKASGYTFTSYWMHWVRQAPGQGLEWMGNIWPGTGGTNYAEKFQQRVTMTRDTSISTAYMELSRLRSDDTAVYYCTRSGGPYFFDYWGQGTLVTVSS
VL: DIVMTQSPLSLPVTPGEPASISCRSSQNIVHNNGITYLEWYLQKPGQSPQLLIYKVSDRFSGVPDRFSGSGSGTDFTLKISRVEAEDVGVYYCFQGSHIPPTFGQGTKVEIKR
B3: h528Fv 5.12.0 (other)
VH: QVQLVQSGAEVKKPGASVKVSCKASGYTFTSYWMHWVRQAPGQGLEWMGNIWPGKGGTNYAEKFQKRVTMTRDTSISTAYMELSRLRSDDTAVYYCARSGGPYFFDYWGQGTLVTVSS
VL: DIVMTQSPLSLPVTPGEPASISCRSSQNIVHNNGITYLEWYLQKPGQSPQLLIYKVSDRFSGVPDRFSGSGSGTDFTLKISRVEAEDVGVYYCFQGSHIPPTFGQGTKVEIKR
B4: h528Fv 5.0.0 (other)
VH: QVQLVQSGAEVKKPGASVKVSCKASGYTFTSYWMHWVRQAPGQGLEWMGNIWPGSGGTNYAEKFKNRVTMTRDTSISTAYMELSRLRSDDTAVYYCARSGGPYFFDYWGQGTLVTVSS
VL: DIVMTQSPLSLPVTPGEPASISCRSSQNIVHNNGITYLEWYLQKPGQSPQLLIYKVSDRFSGVPDRFSGSGSGTDFTLKISRVEAEDVGVYYCFQGSHIPPTFGQGTKVEIKR
B5: h528Fv 5.73.0 (other)
VH: QVQLVQSGAEVKKPGASVKVSCKASGYTFTSYWMHWVRQAPGQGLEWMGNIWPGNGGTNYAEQFKQRVTMTRDTSISTAYMELSRLRSDDTAVYYCARSGGPYFFDYWGQGTLVTVSS
VL: DIVMTQSPLSLPVTPGEPASISCRSSQNIVHNNGITYLEWYLQKPGQSPQLLIYKVSDRFSGVPDRFSGSGSGTDFTLKISRVEAEDVGVYYCFQGSHIPPTFGQGTKVEIKR
B6: h528Fv 5.98.0 (other)
VH: QVQLVQSGAEVKKPGASVKVSCKASGYTFTSYWMHWVRQAPGQGLEWMGNIWPGQGGTNYAEKFKSRVTMTRDTSISTAYMELSRLRSDDTAVYYCARSGGPYFFDYWGQGTLVTVSS
VL: DIVMTQSPLSLPVTPGEPASISCRSSQNIVHNNGITYLEWYLQKPGQSPQLLIYKVSDRFSGVPDRFSGSGSGTDFTLKISRVEAEDVGVYYCFQGSHIPPTFGQGTKVEIKR

One test has as its target T1, soluble EGFR (human epithelial cell growth factor receptor 1, Her1) (human, UniProt P00533 25-645, limits assumed).
T1 construct: The metal chelate purification implies a His tag, but none is described; also called target antigen
The experiment in a line: ITC, 50 uM Fv titrated into 5 uM soluble EGFR. The protocol:
(§1) The resulting mutants were then subjected to thermodynamic analysis by means of Isothermal Titration calorimeter. […] Binding enthalpy (ΔH) and binding coefficient (Ka) were calculated from the change of calorie during the above titration. Free Energy Change (ΔG) and Binding Entropy Change (ΔS) were then calculated from the above values.
(In general: In ITC the heat of successive injections is recorded.)
B1: the Ka is 1.9e+07 M⁻¹, the TΔS is -4.66 kcal/mol, the ΔG was -9.92 kcal/mol and the ΔH is -14.6 kcal/mol.

As for B2, the Ka was found to be 5.24e+08 M⁻¹, the TΔS was -8.08 kcal/mol, the ΔG is -11.9 kcal/mol and the ΔH was -20 kcal/mol.

In the case of B3, the Ka is 4.42e+08 M⁻¹, the TΔS is -4.88 kcal/mol, the ΔG is -11.8 kcal/mol and the ΔH was -16.7 kcal/mol.

B4 yielded a Ka of 1.49e+08 M⁻¹, a TΔS of -9.85 kcal/mol, a ΔG of -11.2 kcal/mol and a ΔH of -21 kcal/mol.

Regarding B5, the Ka was 4.95e+08 M⁻¹, the TΔS was -5.14 kcal/mol, the ΔG was -11.9 kcal/mol and the ΔH is -17 kcal/mol.

In turn, B6 registered a Ka of 5.05e+08 M⁻¹, a TΔS of -6.43 kcal/mol, a ΔG of -11.9 kcal/mol and a ΔH of -18.4 kcal/mol.

A further test addresses T1, soluble EGFR (human epithelial cell …). The experiment in a line: ITC; lower end tied to 5.0.0 by Table 4 (14.9 against 1.9). As for the experimental part: as §1
Take B4: the “fold increase of Ka over h528Fv WT” value lay within 8 to 33 fold.
